Results as given in US20200123260A1 (Pfizer, published 2020).
Numbering of substitutions follows the chain as printed.

Columns and labels:
[1] = target: T1, rhTrkB-ECD (R&D #397-TR/CF) (human, UniProt Q16620 32-430); assay: competition ELISA on coated rhTrkB-ECD; competitor biotinylated chimeric TOA-1 at 25 ng/ml
T1 construct: extracellular domain; Bought protein; also called human TrkB-extracellular domain protein; human TrkB ectodomain protein

[2] = target: T2, Mouse TrkB ectodomain protein (R&D #1494-TB/CF) (mouse, UniProt P15209 32-429); assay: SPR (Biacore), TrkB ectodomain immobilised on CM5, antibody injected
T2 construct: extracellular domain; Bought protein; also called mouse TrkB-extracellular domain protein
T2 sequence (P15209 32-429): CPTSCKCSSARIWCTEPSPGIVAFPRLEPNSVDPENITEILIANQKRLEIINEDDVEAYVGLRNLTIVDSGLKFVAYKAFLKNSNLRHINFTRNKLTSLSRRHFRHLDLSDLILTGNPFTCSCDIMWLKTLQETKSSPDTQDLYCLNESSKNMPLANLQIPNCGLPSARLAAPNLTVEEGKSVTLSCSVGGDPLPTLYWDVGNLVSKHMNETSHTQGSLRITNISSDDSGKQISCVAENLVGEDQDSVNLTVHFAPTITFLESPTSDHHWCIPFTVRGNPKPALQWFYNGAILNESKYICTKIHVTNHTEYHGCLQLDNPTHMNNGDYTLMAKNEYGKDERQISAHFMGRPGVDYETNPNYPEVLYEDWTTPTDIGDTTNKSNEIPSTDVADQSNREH

[3] = target: T1, rhTrkB-ECD (R&D #397-TR/CF); assay: as above
[4] = target: T1, rhTrkB-ECD (R&D #397-TR/CF); assay: competition ELISA: plate coated with rhTrkB-ECD; biotinylated chimeric TOA-1 at 25 ng/ml mixed with the unlabeled antibody; streptavidin-HRP
Chimeric TrkA (d4TrkB) = target: T3, Chimeric TrkA (d4TrkB) (human); assay: cell-based ELISA on transfected 293 cells, HRP-conjugated secondary antibody, TMB, OD450
T3 construct: TrkA residues 187-281 replaced by TrkB residues 190-282

[5] = target: Human TrkA, NP_002520, cell-surface expressed on transfected 293 cells (human, UniProt P04629 33-796); assay: as above
Chain of Human TrkA, NP_002520, cell-surface expressed on transfected 293 cells (P04629 33-796 limits assumed): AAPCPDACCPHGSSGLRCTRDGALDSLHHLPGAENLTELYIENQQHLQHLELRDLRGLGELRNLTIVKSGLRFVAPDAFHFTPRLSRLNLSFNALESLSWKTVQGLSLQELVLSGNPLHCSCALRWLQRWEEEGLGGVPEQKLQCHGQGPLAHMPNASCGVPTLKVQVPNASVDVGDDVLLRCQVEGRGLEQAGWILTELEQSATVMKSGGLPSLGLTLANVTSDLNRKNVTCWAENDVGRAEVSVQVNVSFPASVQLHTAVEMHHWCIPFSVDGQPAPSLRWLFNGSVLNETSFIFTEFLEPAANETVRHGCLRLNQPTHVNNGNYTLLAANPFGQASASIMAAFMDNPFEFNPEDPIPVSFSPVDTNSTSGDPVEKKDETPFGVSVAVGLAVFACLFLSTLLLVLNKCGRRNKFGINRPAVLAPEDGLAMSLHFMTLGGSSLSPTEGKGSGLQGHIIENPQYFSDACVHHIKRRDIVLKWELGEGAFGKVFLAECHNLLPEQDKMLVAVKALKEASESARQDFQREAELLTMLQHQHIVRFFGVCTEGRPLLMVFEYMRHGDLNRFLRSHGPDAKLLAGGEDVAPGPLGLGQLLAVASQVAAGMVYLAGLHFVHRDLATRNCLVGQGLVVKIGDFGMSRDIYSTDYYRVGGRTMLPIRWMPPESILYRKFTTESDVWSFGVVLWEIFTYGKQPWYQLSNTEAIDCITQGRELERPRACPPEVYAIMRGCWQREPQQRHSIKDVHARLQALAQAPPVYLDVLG

Chimeric TrkB (d5TrkA) = target: T4, Chimeric TrkB (d5TrkA) (human, UniProt Q16620 32-822); assay: as above
T4 construct: TrkB residues 284-377 replaced by TrkA residues 280-377
T4 sequence (Q16620 other isoform, or with tags, fused parts or gaps mutant limits assumed): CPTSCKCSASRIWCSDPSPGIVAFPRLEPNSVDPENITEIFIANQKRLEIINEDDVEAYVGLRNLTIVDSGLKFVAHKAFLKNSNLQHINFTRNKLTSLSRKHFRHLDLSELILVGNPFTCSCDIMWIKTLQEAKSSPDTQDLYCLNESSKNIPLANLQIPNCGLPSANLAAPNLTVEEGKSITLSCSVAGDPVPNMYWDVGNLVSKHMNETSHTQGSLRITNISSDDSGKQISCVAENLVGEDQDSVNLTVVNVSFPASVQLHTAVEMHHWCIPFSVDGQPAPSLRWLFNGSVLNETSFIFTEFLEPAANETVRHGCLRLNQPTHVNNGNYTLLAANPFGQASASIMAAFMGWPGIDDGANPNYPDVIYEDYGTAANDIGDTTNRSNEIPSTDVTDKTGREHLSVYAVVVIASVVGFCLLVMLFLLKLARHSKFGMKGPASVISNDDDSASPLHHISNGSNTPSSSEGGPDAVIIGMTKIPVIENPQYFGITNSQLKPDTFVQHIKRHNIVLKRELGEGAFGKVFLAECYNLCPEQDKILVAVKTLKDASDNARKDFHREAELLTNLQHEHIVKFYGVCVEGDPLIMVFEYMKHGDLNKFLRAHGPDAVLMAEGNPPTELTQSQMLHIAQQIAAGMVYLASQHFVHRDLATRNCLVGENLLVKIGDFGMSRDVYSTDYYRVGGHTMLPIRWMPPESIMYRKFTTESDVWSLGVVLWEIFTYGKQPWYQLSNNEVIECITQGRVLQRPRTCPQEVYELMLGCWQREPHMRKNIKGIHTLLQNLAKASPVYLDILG

[6] = target: T5, recombinant human TrkA-Fc (rhTrkA-ECD, R&D system, 175-TK) (human, UniProt P04629 33-423); assay: direct binding ELISA: plate coated with rhTrkA-ECD (Fc chimera) at 5 ug/ml, biotinylated antibody, streptavidin-HRP
T5 construct: extracellular domain; Bought protein; not shown: Fc part, not described
T5 sequence (P04629 33-423): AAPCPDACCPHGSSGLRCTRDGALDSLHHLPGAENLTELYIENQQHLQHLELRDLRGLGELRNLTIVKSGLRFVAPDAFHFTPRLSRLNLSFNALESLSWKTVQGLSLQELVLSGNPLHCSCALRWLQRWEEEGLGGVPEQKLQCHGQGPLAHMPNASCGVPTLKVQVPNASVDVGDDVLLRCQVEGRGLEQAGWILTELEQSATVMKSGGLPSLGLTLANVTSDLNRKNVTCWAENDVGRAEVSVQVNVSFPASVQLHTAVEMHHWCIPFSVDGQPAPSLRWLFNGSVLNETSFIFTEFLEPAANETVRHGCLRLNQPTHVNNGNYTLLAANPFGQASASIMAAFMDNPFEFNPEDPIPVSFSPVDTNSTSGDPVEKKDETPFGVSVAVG

[7] = target: T6, recombinant human TrkC-Fc (rhTrkC-ECD, R&D system, 373-TC/TF) (human, UniProt Q16288 32-429); assay: direct binding ELISA: plate coated with rhTrkC-ECD (Fc chimera) at 5 ug/ml, biotinylated antibody, streptavidin-HRP
T6 construct: extracellular domain; Bought protein; not shown: Fc part, not described

[8] = target: T7, TrkB, Cat (Felis domesticus) on 293 cells (cat (Felis domesticus)); assay: cell-based ELISA on transfected 293 cells
T7 construct: Whole entry with signal peptide; also called cat TrkB
T7 sequence (chain, as listed by the source limits assumed): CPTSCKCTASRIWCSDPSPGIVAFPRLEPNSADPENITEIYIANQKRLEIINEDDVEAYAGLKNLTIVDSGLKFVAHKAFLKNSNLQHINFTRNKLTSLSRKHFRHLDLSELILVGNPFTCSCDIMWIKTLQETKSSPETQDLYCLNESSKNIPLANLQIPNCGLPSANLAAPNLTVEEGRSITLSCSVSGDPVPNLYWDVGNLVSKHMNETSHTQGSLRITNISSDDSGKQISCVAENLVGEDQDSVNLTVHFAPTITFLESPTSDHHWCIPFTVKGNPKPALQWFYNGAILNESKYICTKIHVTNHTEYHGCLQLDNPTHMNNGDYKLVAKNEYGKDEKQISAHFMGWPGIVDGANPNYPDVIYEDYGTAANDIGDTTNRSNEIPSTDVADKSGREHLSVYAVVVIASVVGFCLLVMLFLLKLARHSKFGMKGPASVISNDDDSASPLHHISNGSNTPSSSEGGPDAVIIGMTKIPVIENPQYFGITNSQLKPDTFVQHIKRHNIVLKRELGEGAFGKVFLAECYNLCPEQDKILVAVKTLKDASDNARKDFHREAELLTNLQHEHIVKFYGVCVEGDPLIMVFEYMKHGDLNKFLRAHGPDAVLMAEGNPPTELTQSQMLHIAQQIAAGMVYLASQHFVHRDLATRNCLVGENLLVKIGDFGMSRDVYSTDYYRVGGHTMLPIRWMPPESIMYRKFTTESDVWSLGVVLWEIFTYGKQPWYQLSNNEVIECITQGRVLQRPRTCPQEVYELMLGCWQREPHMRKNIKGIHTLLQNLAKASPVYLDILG

[9] = target: T8, mouse TrkB (nm_001025074) on HEK293 cells (mouse, UniProt P15209 32-821); assay: cell-based ELISA on transfected 293 cells
T8 construct: whole, on cells; also called rmuTrkB-CRE
T8 sequence (P15209 32-821): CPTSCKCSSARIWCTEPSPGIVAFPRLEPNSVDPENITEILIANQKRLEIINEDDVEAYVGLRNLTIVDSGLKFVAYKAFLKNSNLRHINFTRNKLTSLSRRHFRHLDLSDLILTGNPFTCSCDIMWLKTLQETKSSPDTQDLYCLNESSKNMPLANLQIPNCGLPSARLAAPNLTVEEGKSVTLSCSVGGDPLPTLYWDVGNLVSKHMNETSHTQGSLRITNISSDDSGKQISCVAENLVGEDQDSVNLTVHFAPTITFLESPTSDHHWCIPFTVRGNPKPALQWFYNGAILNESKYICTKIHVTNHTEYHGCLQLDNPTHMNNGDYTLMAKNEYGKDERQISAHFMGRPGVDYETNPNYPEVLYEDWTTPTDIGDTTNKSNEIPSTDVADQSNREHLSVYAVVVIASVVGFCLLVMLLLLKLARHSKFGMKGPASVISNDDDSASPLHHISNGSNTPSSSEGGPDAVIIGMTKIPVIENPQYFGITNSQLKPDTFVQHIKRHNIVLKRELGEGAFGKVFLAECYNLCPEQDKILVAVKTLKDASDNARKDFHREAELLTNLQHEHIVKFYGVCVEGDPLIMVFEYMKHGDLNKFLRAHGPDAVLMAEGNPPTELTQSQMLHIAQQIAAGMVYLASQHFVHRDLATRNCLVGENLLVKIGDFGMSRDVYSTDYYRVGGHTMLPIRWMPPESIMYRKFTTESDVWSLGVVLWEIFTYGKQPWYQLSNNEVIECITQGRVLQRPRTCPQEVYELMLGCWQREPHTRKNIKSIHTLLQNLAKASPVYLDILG

[10] = target: human TrkB (open reading frame from nm_006180) on HEK293 cells (human, UniProt Q16620 32-822); assay: cell-based or functional assay
[11] = target: hTrkB-a isoform fused to a small peptide epitope, in U2OS cells (Discoverx Pathhunter) (human, UniProt Q16620 32-822); assay: cell-based or functional assay
Chain of hTrkB-a isoform fused to a small peptide epitope, in U2OS cells (Discoverx Pathhunter) (Q16620 32-430): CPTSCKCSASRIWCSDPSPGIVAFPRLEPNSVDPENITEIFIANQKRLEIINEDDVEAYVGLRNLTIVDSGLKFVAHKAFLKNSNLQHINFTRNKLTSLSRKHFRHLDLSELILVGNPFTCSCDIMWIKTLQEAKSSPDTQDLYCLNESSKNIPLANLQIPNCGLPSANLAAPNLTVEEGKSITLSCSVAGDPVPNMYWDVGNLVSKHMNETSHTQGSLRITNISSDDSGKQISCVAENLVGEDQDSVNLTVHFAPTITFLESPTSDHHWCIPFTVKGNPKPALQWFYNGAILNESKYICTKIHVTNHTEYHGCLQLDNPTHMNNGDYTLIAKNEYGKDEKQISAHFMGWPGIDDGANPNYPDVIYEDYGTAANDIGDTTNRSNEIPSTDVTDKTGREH

[12] = target: hTrkC in the SHC1 recruitment assay (U2OS, Discoverx Pathhunter) (human, UniProt Q16288 32-839); assay: cell-based or functional assay

T1 sequence (Q16620 32-430): as above

B1: TOA-1 variant VH human v1.1 / VL human v1.0 (antibody, V domains shown)
VH: EVQLVESGGGLVQPGGSLRLSCATSGYSFTAYFMNWVRQAPGKGLEWVARINPNNGDTFYTQKFKGRFTISVDNAKNSAYLQMNSLRAEDTAVYYCARRDYFGAMDYWGQGTLVTVSS
VL: DIQMTQSPSSLSASVGDRVTITCRASQTISNNLHWYQQKPGKAPKLLIYSASLAISGVPSRFSGSGSGTDFTLTISSLQPEDFATYYCQQSNSWPNTFGGGTKVEIK
notes: Human IgG; constant regions not restated; also called hu v1.1 / hu v1.0
IC50 [1]: 13.6 nM

B2: huTOA-1 v1.0/2.0 (antibody, V domains shown)
VH: B1 VH with T24A, V72R, A79L
VL: EIVMTQSPATLSVSPGERATLSCRASQTISNNLHWYQQKPGQAPRLLIYSASLAISGIPARFSGSGSGTEFTLTISSLQSEDFAVYYCQQSNSWPNTFGGGTKVEIK
notes: Human IgG; constant regions not restated; also called VH human v1.0 / VL human v2.0
Kd [2]: 20.9 nM | Kd [3]: 16.5 nM | IC50 [1]: 5.9 nM

B3: TOA-1 variant VH human v2.0 / VL human v1.0 (antibody, V domains shown)
VH: EVQLVQSGAEVKKPGATVKISCKVSGYSFTAYFMNWVQQAPGKGLEWMGRINPNNGDTFYTQKFKGRVTITADTSTDTAYMELSSLRSEDTAVYYCATRDYFGAMDYWGQGTLVTVSS
VL: B1 VL
notes: Human IgG; constant regions not restated; also called hu v2.0 / hu v1.0
IC50 [1]: ~126 nM

B4: TOA-1 variant VH mouse / VL human v1.0 (antibody, V domains shown)
VH: EVQLQQSGPELVKPGASMKISCKTSGYSFTAYFMNWVKQSHGKSLEWIGRINPNNGDTFYTQKFKGKATLTVDKSSNTAHMELLSLTSEDSAIYYCGRRDYFGAMDYWGQGTSVTVSS
VL: B1 VL
notes: Human IgG from COS-1 conditioned medium; constant regions not restated; also called mu / hu v1.0
IC50 [1]: 16.3 nM

B5: huTOA-1 VH v1.0 / VL v1.3 (antibody, V domains shown)
VH: B1 VH with T24A, V72R, A79L
VL: B1 VL with A43S
notes: Human IgG; constant regions not restated; also called hu v1.0 / hu v1.3
IC50 (read off the curve) [4]: ~9 nM

B6: TOA-1 variant VH human v1.1 / VL human v2.0 (antibody, V domains shown)
VH: B1 VH
VL: B2 VL
notes: Human IgG; constant regions not restated; also called hu v1.1 / hu v2.0
IC50 [1]: 10.7 nM

B7: TOA-1 variant VH mouse / VL human v1.1 (antibody, V domains shown)
VH: B4 VH
VL: B1 VL with K42E, A43S, Y49K
notes: Human IgG from COS-1 conditioned medium; constant regions not restated; also called mu / hu v1.1
IC50 [1]: 13.6 nM

B8: huTOA-1 VH v1.0 / VL v1.2 (antibody, V domains shown)
VH: B1 VH with T24A, V72R, A79L
VL: B1 VL with K42E
notes: Human IgG; constant regions not restated; also called hu v1.0 / hu v1.2
IC50 (read off the curve) [4]: ~9 nM

B9: TOA-1 variant VH human v1.1 / VL human v1.1 (antibody, V domains shown)
VH: B1 VH
VL: B1 VL with K42E, A43S, Y49K
notes: Human IgG; constant regions not restated; also called hu v1.1 / hu v1.1
IC50 [1]: 10.1 nM

B10: TOA-1 variant VH human v2.0 / VL human v1.1 (antibody, V domains shown)
VH: B3 VH
VL: B1 VL with K42E, A43S, Y49K
notes: Human IgG; constant regions not restated; also called hu v2.0 / hu v1.1
IC50 [1]: ~87.6 nM

B11: mouse TOA-1 antibody (antibody, mouse IgG1, V domains shown)
VH: B4 VH
VL: AIVLIQSPATLSVTPGDSVSLSCRASQTISNNLHWYQQKSHESPRLLIKSASLAISGIPSRFSGSGSGTDFTLSISSVETEDFGMYFCQQSNSWPNTFGGGTKLEIK
notes: Hybridoma antibody, cloned with mouse IgG1 and mouse Kappa primers; also called muTOA-1; mTOA-1
Kd [2]: 16.3 nM | Kd [3]: 14.7 nM | binding result (Chimeric TrkA (d4TrkB)): no binding (tested: 10.00 ug/ml) | binding result [5]: no binding (tested: 10.00 ug/ml) | binding result (Chimeric TrkB (d5TrkA)): no binding (tested: 1.0000 ug/ml) | binding result [6]: no binding (tested: about 6.7 nM) | binding result [7]: no binding (tested: about 6.7 nM) | EC50 [8]: 0.23 nM | EC50 [9]: 0.4 nM

B12: chimeric TOA-1 antibody (antibody, V domains shown)
VH: B4 VH
VL: B11 VL
notes: also called chiTOA-1; VH mouse / VL mouse
Kd [2]: 17 nM | Kd [3]: 12.1 nM | IC50 [1]: 3.6 nM

B13: TOA-1 variant VH human v2.0 / VL human v2.0 (antibody, V domains shown)
VH: B3 VH
VL: B2 VL
notes: Human IgG; constant regions not restated; also called hu v2.0 / hu v2.0
IC50 [1]: ~37.8 nM

B14: BDNF (R&D systems, cat #248-BD) (ligand, human, UniProt P23560 129-247, looked up)
chain: HSDPARRGELSVCDSISEWVTAADKKTAVDMSGGTVTVLEKVPVSKGQLKQYFYETKCNPMGYTKEGCRGIDKRHWNSQCRTTQSYVRALTMDSKKRIGWRFIRIDTSCVCTLTIKRGR
Cre-luciferase reporter, EC50 (FIG. 38) [10]: 5.2 nM | EC50, SHC1 recruitment assay [11]: 1.02 nM | EC50, SHC1 recruitment assay [12]: 5.45 nM
